Assay [1] concerns the target T1, human FcRn/b2M (human, UniProt P61769 21-119, biotinylated).
T1 construct: bought recombinant biotinylated protein (ACRO FCM-H82W4 or Immunitrack ITF01); also called hFcRn; hFcRn/hb2M
In words: SPR off-rate pH 6.0.

Assay [2] has as its target T1, human FcRn/b2M. Put plainly: SPR pH 6.0.
In assay [3] the target is T2, cyno FcRn/b2M (cyno, UniProt Q8SPV9 24-297; Q8SPW0 21-119, biotinylated).
T2 construct: bought recombinant biotinylated protein (Immunitrack ITF05 or ACRO FCM-C82W5); also called cFcRn; cFcRn/cb2M
T2 sequence (Q8SPV9 24-297 limits assumed, chain 1 of 2): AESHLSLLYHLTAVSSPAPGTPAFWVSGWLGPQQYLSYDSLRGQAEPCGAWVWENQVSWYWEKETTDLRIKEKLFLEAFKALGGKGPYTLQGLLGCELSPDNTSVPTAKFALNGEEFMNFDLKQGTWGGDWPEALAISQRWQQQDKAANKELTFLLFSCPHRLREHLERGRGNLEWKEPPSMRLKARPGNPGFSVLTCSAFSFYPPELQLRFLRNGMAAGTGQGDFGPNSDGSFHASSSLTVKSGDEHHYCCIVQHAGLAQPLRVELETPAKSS
T2 sequence (Q8SPW0 21-119 limits assumed, chain 2 of 2): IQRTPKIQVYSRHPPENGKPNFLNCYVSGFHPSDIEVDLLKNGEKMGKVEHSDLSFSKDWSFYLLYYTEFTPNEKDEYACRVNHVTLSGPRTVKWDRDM
In words: SPR pH 6.0.

For assay [4], the target named is T1, human FcRn/b2M. In words: SPR pH 6.0. This is another data set of the same source.

Where a chain is given by its changes, count along the chain named. In names and notes the source's numbering stands.

T1 sequence (chain, as listed by the source limits assumed, chain 1 of 2): as the sequence (Q8SPV9 24-297 limits assumed, chain 1 of 2) above, with D39N, Q44E, S99G, G189S, N190S, M217L, T269S counted along it
T1 sequence (P61769 21-119 limits assumed, chain 2 of 2): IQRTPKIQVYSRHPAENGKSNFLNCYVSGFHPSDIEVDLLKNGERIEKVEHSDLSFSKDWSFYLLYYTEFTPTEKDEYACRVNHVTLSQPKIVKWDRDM

B1: T026301049 (VHH, name in Kabat numbering)
VHH: EVQLVESGGGVVQPGGSLRLSCAASTFTFSEYDMYWVRQAPGKGLEWVSAISSGGGSTDYADSVKGRFTISRDNSKNTLYLQMNSLRPEDTALYYCAADTLYTDLTWYSYWGQGTLVTVSS
notes: tagless
As for B1, in assay [1], the binding result was “no binding”.

B2: T026301121 (VHH, name in Kabat numbering)
VHH: B1 VHH with S53Q, D104S
notes: tagless
A word on the koff: it is the rate constant with which the complex falls apart. A high value points to a short-lived complex. The molecule B2 yielded a koff in assay [2] of 0.0018 s⁻¹.

B3: T026301069 (VHH, name in Kabat numbering)
VHH: B1 VHH with T26G, E31S, S53Q, D104S, W107S
notes: tagless
As usually defined, the Kd is the constant that tells how readily two partners part at equilibrium. High values mean lower affinity, low ones higher affinity. B3: the Kd in assay [3] was found to be 23 nM.

B4: T026301123 (VHH, name in Kabat numbering)
VHH: B1 VHH with E31S, D104S
notes: tagless
As for B4, the koff in assay [2] is 0.0054 s⁻¹.

B5: T026301062 (VHH, name in Kabat numbering)
VHH: B1 VHH with E31S
notes: tagless
As to B5, the binding result in assay [1] is reported as “no binding”.

B6: T026301125 (VHH, name in Kabat numbering)
VHH: B1 VHH with T26G, D33A, D104S, W107K
notes: tagless
B6: in assay [2], the koff came out at 0.0082 s⁻¹.

B7: T026301118 (VHH, name in Kabat numbering)
VHH: B1 VHH with T26G, E31S, W107S
notes: tagless
On to B7, for which the binding result in assay [1] is reported as “no binding”.

B8: T026301127 (VHH, name in Kabat numbering)
VHH: B1 VHH with D104S, W107S
notes: tagless
The molecule B8 gave a koff in assay [2] of 0.0095 s⁻¹.

B9: T026301063 (VHH, name in Kabat numbering)
VHH: B1 VHH with E31S, D33A, S53Q, D104S
notes: tagless
B9: the koff in assay [2] was 0.005 s⁻¹. Further, the Kd in assay [4] came to 62 nM; in assay [3] it was 41 nM.

B10: T026301098 (VHH, name in Kabat numbering)
VHH: B1 VHH with T26G, E31D, D33A, D104S
notes: tagless; also called T0263018B11 S31D
On to B10, for which the koff in assay [2] came to 0.013 s⁻¹. Further, the Kd in assay [4] came out at 200 nM; in assay [3], 140 nM.

B11: T026301087 (VHH, name in Kabat numbering)
VHH: B1 VHH with T26G, S53Q, D104S
notes: tagless
B11 returned a koff in assay [2] of 0.0011 s⁻¹. The Kd in assay [4] was found to be 25 nM; in assay [3] it was 20 nM.

B12: T026301113 (VHH, name in Kabat numbering)
VHH: B1 VHH with T26G, D33A, S53Q, D104S, W107K
notes: tagless
For the molecule B12, in assay [2], the koff was 0.021 s⁻¹.

B13: T026301108 (VHH, name in Kabat numbering)
VHH: B1 VHH with D33A, S53Q, W107S
notes: tagless
On to B13, for which the binding result in assay [1] is listed as “no binding”.

B14: T026301100 (VHH, name in Kabat numbering)
VHH: B1 VHH with T26G, E31S, S53Q
notes: tagless
For B14, the koff in assay [2] was found to be 0.0039 s⁻¹. In addition, the Kd is 140 nM in assay [4] and 98 nM in assay [3].

B15: T026301116 (VHH, name in Kabat numbering)
VHH: B1 VHH with T26G, W107K
notes: tagless
Turning to B15, the binding result in assay [1] is reported as “no binding”.

B16: T026301053 (VHH, name in Kabat numbering)
VHH: B1 VHH with D104S, W107K
notes: tagless
Take B16: the binding result in assay [1] was “no binding”.

B17: T026301117 (VHH, name in Kabat numbering)
VHH: B1 VHH with T26G, D33A, D104S, W107S
notes: tagless
Turning to B17, in assay [2], the koff came to 0.0067 s⁻¹. Also, the results for the Kd in assay [4] and in assay [3] were 170 nM and 110 nM, respectively.

B18: T026301066 (VHH, name in Kabat numbering)
VHH: B1 VHH with T26G, D33A, W107K
notes: tagless
With B18, the binding result in assay [1] is given as “no binding”.

B19: T026301106 (VHH, name in Kabat numbering)
VHH: B1 VHH with E31S, S53Q, W107S
notes: tagless
Regarding B19, the binding result in assay [1] is reported as “no binding”.

B20: T026301095 (VHH, name in Kabat numbering)
VHH: B1 VHH with T26G, W107S
notes: tagless
For B20, the binding result in assay [1] was “no binding”.

B21: T026301068 (VHH, name in Kabat numbering)
VHH: B1 VHH with T26G, E31S, S53Q, W107K
notes: tagless
On to B21, for which, in assay [1], the binding result is listed as “no binding”.

B22: T026301128 (VHH, name in Kabat numbering)
VHH: B1 VHH with T26G, E31S, D33A, S53Q, W107K
notes: tagless
B22: the koff in assay [2] was 0.032 s⁻¹.

B23: T026301076 (VHH, name in Kabat numbering)
VHH: B1 VHH with T26G, E31S, S53Q, D104S, W107K
notes: tagless
In the case of B23, the koff in assay [2] is 0.003 s⁻¹. Also, the Kd was found to be 120 nM in assay [4] and 37 nM in assay [3].

B24: T026301131 (VHH, name in Kabat numbering)
VHH: B1 VHH with E31S, W107S
notes: tagless
Consider B24, for which the binding result in assay [1] is “no binding”.

B25: T026301099 (VHH, name in Kabat numbering)
VHH: B1 VHH with T26G, D104S
notes: tagless
The molecule B25 yielded a Kd in assay [4] of 30 nM.

B26: T026301114 (VHH, name in Kabat numbering)
VHH: B1 VHH with D33A, W107K
notes: tagless
Consider B26, for which the binding result in assay [1] is “no binding”.

B27: T026301092 (VHH, name in Kabat numbering)
VHH: B1 VHH with T26G, E31S, W107K
notes: tagless
Turning to B27, the binding result in assay [1] was “no binding”.

B28: T026301104 (VHH, name in Kabat numbering)
VHH: B1 VHH with T26G, D33A, S53Q, W107K
notes: tagless
Turning to B28, the binding result in assay [1] is “no binding”.

B29: T026301101 (VHH, name in Kabat numbering)
VHH: B1 VHH with E31S, D33A, W107K
notes: tagless
Take B29: the binding result in assay [1] is “no binding”.

B30: T026301120 (VHH, name in Kabat numbering)
VHH: B1 VHH with S53Q, W107S
notes: tagless
With B30, in assay [1], the binding result is “no binding”.

B31: T026301055 (VHH, name in Kabat numbering)
VHH: B1 VHH with E31S, D104S, W107K
notes: tagless
Take B31: the binding result in assay [1] is listed as “no binding”.

B32: T026301093 (VHH, name in Kabat numbering)
VHH: B1 VHH with E31S, D104S, W107S
notes: tagless
Regarding B32, the binding result in assay [1] is reported as “no binding”.

B33: T026301129 (VHH, name in Kabat numbering)
VHH: B1 VHH with T26G, S53Q, W107K
notes: tagless
Take B33: the binding result in assay [1] is listed as “no binding”.

B34: T026301091 (VHH, name in Kabat numbering)
VHH: B1 VHH with T26G, D104S, W107S
notes: tagless
In turn, B34 showed a koff in assay [2] of 0.0062 s⁻¹. In addition, the dissociation constant Kd in assay [4] was determined as 250 nM; in assay [3], 160 nM.

B35: T026301115 (VHH, name in Kabat numbering)
VHH: B1 VHH with E31S, W107K
notes: tagless
For the molecule B35, in assay [1], the binding result is on record as “no binding”.

B36: T026301124 (VHH, name in Kabat numbering)
VHH: B1 VHH with D33A, S53Q, D104S, W107K
notes: tagless
With B36, the koff in assay [2] was found to be 0.059 s⁻¹.

B37: T026301065 (VHH, name in Kabat numbering)
VHH: B1 VHH with S53Q
notes: tagless
Take B37: the binding result in assay [1] was “no binding”.

B38: T026301058 (VHH, name in Kabat numbering)
VHH: B1 VHH with D33A, S53Q, W107K
notes: tagless
Consider B38, for which, in assay [1], the binding result is “no binding”.

B39: T026301070 (VHH, name in Kabat numbering)
VHH: B1 VHH with T26G, S53Q, D104S, W107S
notes: tagless
As for B39, the koff in assay [2] was determined as 0.0046 s⁻¹. Moreover, the Kd in assay [4] is 150 nM; in assay [3], 140 nM.

B40: T026301126 (VHH, name in Kabat numbering)
VHH: B1 VHH with E31S, D33A, D104S, W107K
notes: tagless
Take B40: the koff in assay [2] turned out to be 0.01 s⁻¹.

B41: T026301056 (VHH, name in Kabat numbering)
VHH: B1 VHH with S53Q, W107K
notes: tagless
As for B41, the binding result in assay [1] is “no binding”.

B42: T026301130 (VHH, name in Kabat numbering)
VHH: B1 VHH with W107S
notes: tagless
B42: the binding result in assay [1] is “no binding”.

B43: T026301077 (VHH, name in Kabat numbering)
VHH: B1 VHH with S53Q, D104S, W107K
notes: tagless
B43: the binding result in assay [1] is reported as “no binding”.

B44: T026301080 (VHH, name in Kabat numbering)
VHH: B1 VHH with T26G, E31S, D104S, W107S
notes: tagless
In assay [2], B44 returned a koff of 0.0051 s⁻¹. Besides, the Kd turned out to be 150 nM in assay [4] and 130 nM in assay [3].

B45: T026301057 (VHH, name in Kabat numbering)
VHH: B1 VHH with T26G, D33A, S53Q, D104S, W107S
notes: tagless
Turning to B45, the koff in assay [2] was found to be 0.016 s⁻¹. The Kd was determined as 390 nM in assay [4] and 260 nM in assay [3].

(Values after patent publication US20240132624A1 (Ablynx, published 2024).)
